Patent US20190233493A1 (Sanofi, published 2019)
*1 amine or outer side, *2 acyl side, *3 side chain or, on linkers, in order; H or OH if unused. Side-chain parts run from the residue outwards. [ ]: non-standard residue; d: D form. The star is where a group is joined. PEG12 = NCCOCCOCCOCCOCCOCCOCCOCCOCCOCCOCCOCCOCCC(=O)O; γGlu = O=C(O)[C@H](CCC(=O)[*:2])N[*:1]; Stearoyl = CCCCCCCCCCCCCCCCCC(=O)*; Palmitoyl = CCCCCCCCCCCCCCCC(=O)*; Nle = CCCC[C@H](N)C(=O)O; Aib = CC(C)(N)C(=O)O

T1: RXFP1 receptor (UniProt Q9HBX9 1-757, limits assumed)
T1 sequence (looked up): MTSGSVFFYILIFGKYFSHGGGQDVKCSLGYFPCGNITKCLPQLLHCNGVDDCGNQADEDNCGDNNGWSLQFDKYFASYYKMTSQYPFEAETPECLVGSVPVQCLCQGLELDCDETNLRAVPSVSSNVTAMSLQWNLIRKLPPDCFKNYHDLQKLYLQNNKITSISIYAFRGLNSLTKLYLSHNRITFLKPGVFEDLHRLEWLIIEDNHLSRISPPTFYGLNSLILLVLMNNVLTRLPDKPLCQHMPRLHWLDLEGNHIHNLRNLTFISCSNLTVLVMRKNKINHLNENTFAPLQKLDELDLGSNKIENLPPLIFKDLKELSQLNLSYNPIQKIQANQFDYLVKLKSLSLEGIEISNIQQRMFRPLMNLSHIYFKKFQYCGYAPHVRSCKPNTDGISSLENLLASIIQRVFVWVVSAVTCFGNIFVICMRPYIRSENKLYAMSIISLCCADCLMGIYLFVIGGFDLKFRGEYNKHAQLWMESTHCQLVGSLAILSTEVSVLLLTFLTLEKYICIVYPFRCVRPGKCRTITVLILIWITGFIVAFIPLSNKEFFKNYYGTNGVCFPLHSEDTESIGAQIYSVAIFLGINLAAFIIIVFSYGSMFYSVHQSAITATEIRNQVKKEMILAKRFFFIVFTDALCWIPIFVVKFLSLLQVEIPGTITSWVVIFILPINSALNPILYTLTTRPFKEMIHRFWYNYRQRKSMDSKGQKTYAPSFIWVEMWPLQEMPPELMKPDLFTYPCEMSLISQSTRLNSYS


molecular target: T1, RXFP1 receptor; test: cell-based or functional assay

Row | Binder | EC50 (nM), OVCAR 5 cells (cAMP) | EMax, OVCAR 5 cells (cAMP)
1 | Ac-LEGREKVRAQI[Aib][Aib]EG[Nle]STWS[Aib]RK[PEG12]K([γGlu-γGlu-γGlu-Palmitoyl])-NH2 (SMILES CCCCCCCCCCCCCCCC(=O)N[C@@H](CCC(=O)N[C@@H](CCC(=O)N[C@@H](CCC(=O)NCCCC[C@H](NC(=O)CCOCCOCCOCCOCCOCCOCCOCCOCCOCCOCCOCCOCCNC(=O)[C@H](CCCCN)NC(=O)[C@H](CCCNC(=N)N)NC(=O)C(C)(C)NC(=O)[C@H](CO)NC(=O)[C@H](Cc1c[nH]c2ccccc12)NC(=O)[C@@H](NC(=O)[C@H](CO)NC(=O)[C@H](CCCC)NC(=O)CNC(=O)[C@H](CCC(=O)O)NC(=O)C(C)(C)NC(=O)C(C)(C)NC(=O)[C@@H](NC(=O)[C@H](CCC(N)=O)NC(=O)[C@H](C)NC(=O)[C@H](CCCNC(=N)N)NC(=O)[C@@H](NC(=O)[C@H](CCCCN)NC(=O)[C@H](CCC(=O)O)NC(=O)[C@H](CCCNC(=N)N)NC(=O)CNC(=O)[C@H](CCC(=O)O)NC(=O)[C@H](CC(C)C)NC(C)=O)C(C)C)[C@@H](C)CC)[C@@H](C)O)C(N)=O)C(=O)O)C(=O)O)C(=O)O) [peptide of SEQ ID NO: 24] | 3.2 nM | 74%
2 | Ac-LEGREKVR[Aib]QI[Aib][Aib]EG[Nle]STWS[Aib]RKK(Ac)[PEG12]K([γGlu-γGlu-γGlu-Palmitoyl])-NH2 (SMILES CCCCCCCCCCCCCCCC(=O)N[C@@H](CCC(=O)N[C@@H](CCC(=O)N[C@@H](CCC(=O)NCCCC[C@H](NC(=O)CCOCCOCCOCCOCCOCCOCCOCCOCCOCCOCCOCCOCCNC(=O)[C@H](CCCCNC(C)=O)NC(=O)[C@H](CCCCN)NC(=O)[C@H](CCCNC(=N)N)NC(=O)C(C)(C)NC(=O)[C@H](CO)NC(=O)[C@H](Cc1c[nH]c2ccccc12)NC(=O)[C@@H](NC(=O)[C@H](CO)NC(=O)[C@H](CCCC)NC(=O)CNC(=O)[C@H](CCC(=O)O)NC(=O)C(C)(C)NC(=O)C(C)(C)NC(=O)[C@@H](NC(=O)[C@H](CCC(N)=O)NC(=O)C(C)(C)NC(=O)[C@H](CCCNC(=N)N)NC(=O)[C@@H](NC(=O)[C@H](CCCCN)NC(=O)[C@H](CCC(=O)O)NC(=O)[C@H](CCCNC(=N)N)NC(=O)CNC(=O)[C@H](CCC(=O)O)NC(=O)[C@H](CC(C)C)NC(C)=O)C(C)C)[C@@H](C)CC)[C@@H](C)O)C(N)=O)C(=O)O)C(=O)O)C(=O)O) [peptide of SEQ ID NO: 28] | 4.64 nM | 78%

Second part, the binder after the results:

Row | EC50 (nM), OVCAR 5 cells (cAMP) | EMax, OVCAR 5 cells (cAMP) | Binder
3 | 0.3 nM | 86% | Ac-LEGREKVR[Aib]K(Ac)I[Aib][Aib]EG[Nle]STWS[Aib]RKK(Ac)[PEG12]K([γGlu-γGlu-γGlu-Palmitoyl])-NH2 (SMILES CCCCCCCCCCCCCCCC(=O)N[C@@H](CCC(=O)N[C@@H](CCC(=O)N[C@@H](CCC(=O)NCCCC[C@H](NC(=O)CCOCCOCCOCCOCCOCCOCCOCCOCCOCCOCCOCCOCCNC(=O)[C@H](CCCCNC(C)=O)NC(=O)[C@H](CCCCN)NC(=O)[C@H](CCCNC(=N)N)NC(=O)C(C)(C)NC(=O)[C@H](CO)NC(=O)[C@H](Cc1c[nH]c2ccccc12)NC(=O)[C@@H](NC(=O)[C@H](CO)NC(=O)[C@H](CCCC)NC(=O)CNC(=O)[C@H](CCC(=O)O)NC(=O)C(C)(C)NC(=O)C(C)(C)NC(=O)[C@@H](NC(=O)[C@H](CCCCNC(C)=O)NC(=O)C(C)(C)NC(=O)[C@H](CCCNC(=N)N)NC(=O)[C@@H](NC(=O)[C@H](CCCCN)NC(=O)[C@H](CCC(=O)O)NC(=O)[C@H](CCCNC(=N)N)NC(=O)CNC(=O)[C@H](CCC(=O)O)NC(=O)[C@H](CC(C)C)NC(C)=O)C(C)C)[C@@H](C)CC)[C@@H](C)O)C(N)=O)C(=O)O)C(=O)O)C(=O)O) [peptide of SEQ ID NO: 27]
4 | 28.5 nM | 93% | Ac-LEGREKVRAQI[Aib][Aib]EG[Nle]STWS[Aib]RKK([γGlu-Stearoyl])-NH2 (SMILES CCCCCCCCCCCCCCCCCC(=O)N[C@@H](CCC(=O)NCCCC[C@H](NC(=O)[C@H](CCCCN)NC(=O)[C@H](CCCNC(=N)N)NC(=O)C(C)(C)NC(=O)[C@H](CO)NC(=O)[C@H](Cc1c[nH]c2ccccc12)NC(=O)[C@@H](NC(=O)[C@H](CO)NC(=O)[C@H](CCCC)NC(=O)CNC(=O)[C@H](CCC(=O)O)NC(=O)C(C)(C)NC(=O)C(C)(C)NC(=O)[C@@H](NC(=O)[C@H](CCC(N)=O)NC(=O)[C@H](C)NC(=O)[C@H](CCCNC(=N)N)NC(=O)[C@@H](NC(=O)[C@H](CCCCN)NC(=O)[C@H](CCC(=O)O)NC(=O)[C@H](CCCNC(=N)N)NC(=O)CNC(=O)[C@H](CCC(=O)O)NC(=O)[C@H](CC(C)C)NC(C)=O)C(C)C)[C@@H](C)CC)[C@@H](C)O)C(N)=O)C(=O)O) [peptide of SEQ ID NO: 3]
5 | 0.57 nM | 85% | Ac-LEGREKVRAK(Ac)I[Aib][Aib]EG[Nle]STWS[Aib]RKK(Ac)[PEG12]K([γGlu-γGlu-γGlu-Palmitoyl])-NH2 (SMILES CCCCCCCCCCCCCCCC(=O)N[C@@H](CCC(=O)N[C@@H](CCC(=O)N[C@@H](CCC(=O)NCCCC[C@H](NC(=O)CCOCCOCCOCCOCCOCCOCCOCCOCCOCCOCCOCCOCCNC(=O)[C@H](CCCCNC(C)=O)NC(=O)[C@H](CCCCN)NC(=O)[C@H](CCCNC(=N)N)NC(=O)C(C)(C)NC(=O)[C@H](CO)NC(=O)[C@H](Cc1c[nH]c2ccccc12)NC(=O)[C@@H](NC(=O)[C@H](CO)NC(=O)[C@H](CCCC)NC(=O)CNC(=O)[C@H](CCC(=O)O)NC(=O)C(C)(C)NC(=O)C(C)(C)NC(=O)[C@@H](NC(=O)[C@H](CCCCNC(C)=O)NC(=O)[C@H](C)NC(=O)[C@H](CCCNC(=N)N)NC(=O)[C@@H](NC(=O)[C@H](CCCCN)NC(=O)[C@H](CCC(=O)O)NC(=O)[C@H](CCCNC(=N)N)NC(=O)CNC(=O)[C@H](CCC(=O)O)NC(=O)[C@H](CC(C)C)NC(C)=O)C(C)C)[C@@H](C)CC)[C@@H](C)O)C(N)=O)C(=O)O)C(=O)O)C(=O)O) [peptide of SEQ ID NO: 26]
6 | 1.21 nM | 95% | Ac-LEGREKVRAK(Ac)I[Aib][Aib]EGMSTWS[Aib]RK[PEG12]K([γGlu-γGlu-γGlu-Palmitoyl])-NH2 (SMILES CCCCCCCCCCCCCCCC(=O)N[C@@H](CCC(=O)N[C@@H](CCC(=O)N[C@@H](CCC(=O)NCCCC[C@H](NC(=O)CCOCCOCCOCCOCCOCCOCCOCCOCCOCCOCCOCCOCCNC(=O)[C@H](CCCCN)NC(=O)[C@H](CCCNC(=N)N)NC(=O)C(C)(C)NC(=O)[C@H](CO)NC(=O)[C@H](Cc1c[nH]c2ccccc12)NC(=O)[C@@H](NC(=O)[C@H](CO)NC(=O)[C@H](CCSC)NC(=O)CNC(=O)[C@H](CCC(=O)O)NC(=O)C(C)(C)NC(=O)C(C)(C)NC(=O)[C@@H](NC(=O)[C@H](CCCCNC(C)=O)NC(=O)[C@H](C)NC(=O)[C@H](CCCNC(=N)N)NC(=O)[C@@H](NC(=O)[C@H](CCCCN)NC(=O)[C@H](CCC(=O)O)NC(=O)[C@H](CCCNC(=N)N)NC(=O)CNC(=O)[C@H](CCC(=O)O)NC(=O)[C@H](CC(C)C)NC(C)=O)C(C)C)[C@@H](C)CC)[C@@H](C)O)C(N)=O)C(=O)O)C(=O)O)C(=O)O) [peptide of SEQ ID NO: 25]
